PMC4461266 (PLoS Pathogens, 2015)

Biological target: PR8-PB1-GST (influenza A virus A/Puerto Rico/8/1934 …, UniProt P03431 1-757)
Test: pull-down
Details: both partners purified

B1: TRIM32-HIS (natural protein, human, UniProt Q13049 1-653, looked up)
chain: MAAAAASHLNLDALREVLECPICMESFTEEQLRPKLLHCGHTICRQCLEKLLASSINGVRCPFCSKITRITSLTQLTDNLTVLKIIDTAGLSEAVGLLMCRSCGRRLPRQFCRSCGLVLCEPCREADHQPPGHCTLPVKEAAEERRRDFGEKLTRLRELMGELQRRKAALEGVSKDLQARYKAVLQEYGHEERRVQDELARSRKFFTGSLAEVEKSNSQVVEEQSYLLNIAEVQAVSRCDYFLAKIKQADVALLEETADEEEPELTASLPRELTLQDVELLKVGHVGPLQIGQAVKKPRTVNVEDSWAMEATASAASTSVTFREMDMSPEEVVASPRASPAKQRGPEAASNIQQCLFLKKMGAKGSTPGMFNLPVSLYVTSQGEVLVADRGNYRIQVFTRKGFLKEIRRSPSGIDSFVLSFLGADLPNLTPLSVAMNCQGLIGVTDSYDNSLKVYTLDGHCVACHRSQLSKPWGITALPSGQFVVTDVEGGKLWCFTVDRGSGVVKYSCLCSAVRPKFVTCDAEGTVYFTQGLGLNLENRQNEHHLEGGFSIGSVGPDGQLGRQISHFFSENEDFRCIAGMCVDARGDLIVADSSRKEILHFPKGGGYSVLIREGLTCPVGIALTPKGQLLVLDCWDHCIKIYSYHLRRYSTP
notes: also called HIS-TRIM32; HIS-tagged TRIM32
B1: binds.
